Experimental data: US20260146077A1 (US Dept. of Health and Human Services, published 2026)
Like-named read-outs stand apart in the source and are kept apart here.

Assays:
Experiment in all cases: cell-based or functional assay
[1] = molecular target: T1, SARS-CoV-2 spike protein, B.1.617.2 (SARS-CoV-2, UniProt P0DTC2 14-1273)
[2] = molecular target: T2, SARS-CoV-2 spike protein, B.1.351 (SARS-CoV-2, UniProt P0DTC2 14-1273)
[3] = molecular target: T3, SARS-CoV-2 spike protein, BA.1 (SARS-CoV-2, UniProt P0DTC2 14-1273)
[4] = molecular target: T3, SARS-CoV-2 spike protein, BA.1; remark: listed apart in the source
[5] = molecular target: SARS-CoV-2 spike protein, BA.2.12.1 (SARS-CoV-2, UniProt P0DTC2 14-1273)
[6] = molecular target: T3, SARS-CoV-2 spike protein, BA.1; remark: listed apart in the source
[7] = molecular target: T1, SARS-CoV-2 spike protein, B.1.617.2; remark: listed apart in the source
[8] = molecular target: T2, SARS-CoV-2 spike protein, B.1.351; remark: listed apart in the source

B1: A23-58.1HC/58.1LC_93VGLT (antibody, V domains shown)
VH: not shown
VL: EIVLTQSPGTLSLSPGERATLSCRASQSVSSSYLAWYQQKPGQAPRLLIYSASSRATGIPDRFSGSGSGTDFTLTISRLEPEDFAVYFCQQYVGLTWTFGQGTKVEIK
[1]
  neutralization IC50: 0.0009 µg/mL
  neutralization IC80: 0.0024 µg/mL
[2]
  neutralization IC50: 0.001 µg/mL
  neutralization IC80: 0.0032 µg/mL
[3]
  neutralization IC50: 0.0048 µg/mL
  neutralization IC80: 0.0187 µg/mL
[4]
  BA.1 neutralization, fold improvement over A19-58.1: > 20 fold
[5]
  neutralization IC50: 0.0091 µg/mL
  neutralization IC80: 0.0431 µg/mL

B2: A23-58.1HC_Y100cA/58.1LC_93VGLT (antibody, V domains shown)
VH: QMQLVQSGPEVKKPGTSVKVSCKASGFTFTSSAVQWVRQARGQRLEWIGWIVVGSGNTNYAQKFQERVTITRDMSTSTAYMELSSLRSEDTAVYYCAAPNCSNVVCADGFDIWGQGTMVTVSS
VL: EIVLTQSPGTLSLSPGERATLSCRASQSVSSSYLAWYQQKPGQAPRLLIYSASSRATGIPDRFSGSGSGTDFTLTISRLEPEDFAVYFCQQYVGLTWTFGQGTKVEIK
[3]
  neutralization IC50: 0.306 µg/mL
  neutralization IC80: 2.54 µg/mL
[5]
  neutralization IC50: 0.48 µg/mL
  neutralization IC80: 2.05 µg/mL

B3: B1-182.1HC/182.1LC_93VGLT (antibody, V domains shown)
VH: not shown
VL: EIVLTQSPGTLSLSPGERATLSCRASQSVSSSYLAWYQQKPGQAPRLLIYGASSRATGFPDRFSGSGSGTDFTLTISRLEPEDFAVYYCQQYVGLTWTFGQGTKVEIR
[6]
  neutralization IC50: 0.297 µg/mL
  neutralization IC80: 3.19 µg/mL

B4: B1-182.1HC/182.1LC_95LTG (antibody, V domains shown)
VH: not shown
VL: EIVLTQSPGTLSLSPGERATLSCRASQSVSSSYLAWYQQKPGQAPRLLIYGASSRATGFPDRFSGSGSGTDFTLTISRLEPEDFAVYYCQQYGNLTGWTFGQGTKVEIR
[7]
  neutralization IC50: 0.0068 µg/mL
  neutralization IC80: 0.0151 µg/mL
[8]
  neutralization IC50: 0.0072 µg/mL
  neutralization IC80: 0.014 µg/mL
[6]
  neutralization IC50: 0.0206 µg/mL
  neutralization IC80: 0.118 µg/mL
[4]
  BA.1 neutralization, fold improvement over B1-182.1: > 9 fold

B5: B1-182.1HC_F100cS/182.1LC_94GLTG (antibody, V domains shown)
VH: not shown
VL: EIVLTQSPGTLSLSPGERATLSCRASQSVSSSYLAWYQQKPGQAPRLLIYGASSRATGFPDRFSGSGSGTDFTLTISRLEPEDFAVYYCQQYGGLTGWTFGQGTKVEIR
[7]
  neutralization IC50: 0.0018 µg/mL
  neutralization IC80: 0.0052 µg/mL
[8]
  neutralization IC50: 0.0022 µg/mL
  neutralization IC80: 0.0049 µg/mL
[6]
  neutralization IC50: 0.0042 µg/mL
  neutralization IC80: 0.0167 µg/mL
[4]
  BA.1 neutralization, fold improvement over B1-182.1: > 46 fold

B6: A23-58.1HC/58.1LC_96+G (antibody, V domains shown)
VH: not shown
VL: EIVLTQSPGTLSLSPGERATLSCRASQSVSSSYLAWYQQKPGQAPRLLIYSASSRATGIPDRFSGSGSGTDFTLTISRLEPEDFAVYFCQQYGTSPGWTFGQGTKVEIK
[1]
  neutralization IC50: 0.0046 µg/mL
  neutralization IC80: 0.0112 µg/mL
[2]
  neutralization IC50: 0.0105 µg/mL
  neutralization IC80: 0.0292 µg/mL
[3]
  neutralization IC50: 0.133 µg/mL
  neutralization IC80: 0.917 µg/mL

B7: B1-182.1HC_F100cS/182.1LC_93VGLTG (antibody, V domains shown)
VH: not shown
VL: EIVLTQSPGTLSLSPGERATLSCRASQSVSSSYLAWYQQKPGQAPRLLIYGASSRATGFPDRFSGSGSGTDFTLTISRLEPEDFAVYYCQQYVGLTGWTFGQGTKVEIR
[6]
  neutralization IC80: 0.0909 µg/mL
[4]
  BA.1 neutralization, fold improvement over B1-182.1: > 9 fold
  pseudovirus neutralization IC50: 0.0228 µg/mL

B8: A23-58.1HC/58.1LC_95LTG (antibody, V domains shown)
VH: not shown
VL: EIVLTQSPGTLSLSPGERATLSCRASQSVSSSYLAWYQQKPGQAPRLLIYSASSRATGIPDRFSGSGSGTDFTLTISRLEPEDFAVYFCQQYGTLTGWTFGQGTKVEIK
[1]
  neutralization IC50: 0.0028 µg/mL
  neutralization IC80: 0.0116 µg/mL
[2]
  neutralization IC50: 0.0035 µg/mL
  neutralization IC80: 0.0091 µg/mL
[3]
  neutralization IC50: 0.0214 µg/mL
  neutralization IC80: 0.0454 µg/mL
[4]
  BA.1 neutralization, fold improvement over A19-58.1: 5 fold

B9: B1-182.1HC/182.1LC_94GLTG (antibody, V domains shown)
VH: not shown
VL: EIVLTQSPGTLSLSPGERATLSCRASQSVSSSYLAWYQQKPGQAPRLLIYGASSRATGFPDRFSGSGSGTDFTLTISRLEPEDFAVYYCQQYGGLTGWTFGQGTKVEIR
[7]
  neutralization IC50: 0.0041 µg/mL
  neutralization IC80: 0.0086 µg/mL
[8]
  neutralization IC50: 0.0023 µg/mL
  neutralization IC80: 0.0063 µg/mL
[6]
  neutralization IC50: 0.0142 µg/mL
  neutralization IC80: 0.0623 µg/mL
[4]
  BA.1 neutralization, fold improvement over B1-182.1: > 13 fold

B10: A23-58.1HC_Y100cA/58.1LC_93VGLTG (antibody, V domains shown)
VH: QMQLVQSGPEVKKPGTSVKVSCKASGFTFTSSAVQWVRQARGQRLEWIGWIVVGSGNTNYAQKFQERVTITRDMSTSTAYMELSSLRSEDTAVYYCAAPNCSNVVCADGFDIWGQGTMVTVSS
VL: EIVLTQSPGTLSLSPGERATLSCRASQSVSSSYLAWYQQKPGQAPRLLIYSASSRATGIPDRFSGSGSGTDFTLTISRLEPEDFAVYFCQQYVGLTGWTFGQGTKVEIK
[1]
  neutralization IC50: 0.003 µg/mL
  neutralization IC80: 0.0098 µg/mL
[2]
  neutralization IC50: 0.0011 µg/mL
  neutralization IC80: 0.0043 µg/mL
[3]
  neutralization IC50: 0.0155 µg/mL
  neutralization IC80: 0.0419 µg/mL
[4]
  BA.1 neutralization, fold improvement over A19-58.1: > 6 fold
[5]
  neutralization IC50: 0.0242 µg/mL
  neutralization IC80: 0.0621 µg/mL

B11: B1-182.1HC/182.1LC_96TG (antibody, V domains shown)
VH: not shown
VL: EIVLTQSPGTLSLSPGERATLSCRASQSVSSSYLAWYQQKPGQAPRLLIYGASSRATGFPDRFSGSGSGTDFTLTISRLEPEDFAVYYCQQYGNSTGWTFGQGTKVEIR
[7]
  neutralization IC50: 0.004 µg/mL
  neutralization IC80: 0.0084 µg/mL
[8]
  neutralization IC50: 0.0044 µg/mL
  neutralization IC80: 0.0143 µg/mL
[6]
  neutralization IC50: 0.0206 µg/mL
  neutralization IC80: 0.0857 µg/mL
[4]
  BA.1 neutralization, fold improvement over B1-182.1: > 9 fold

B12: A23-58.1HC/58.1LC_96TG (antibody, V domains shown)
VH: not shown
VL: EIVLTQSPGTLSLSPGERATLSCRASQSVSSSYLAWYQQKPGQAPRLLIYSASSRATGIPDRFSGSGSGTDFTLTISRLEPEDFAVYFCQQYGTSTGWTFGQGTKVEIK
[1]
  neutralization IC50: 0.0054 µg/mL
  neutralization IC80: 0.0131 µg/mL
[2]
  neutralization IC50: 0.0027 µg/mL
  neutralization IC80: 0.0066 µg/mL
[3]
  neutralization IC50: 0.0294 µg/mL
  neutralization IC80: 0.0658 µg/mL
[4]
  BA.1 neutralization, fold improvement over A19-58.1: > 3 fold

B13: A23-58.1HC/58.1LC_F88Y-94GLTG (antibody, V domains shown)
VH: not shown
VL: EIVLTQSPGTLSLSPGERATLSCRASQSVSSSYLAWYQQKPGQAPRLLIYSASSRATGIPDRFSGSGSGTDFTLTISRLEPEDFAVYYCQQYGGLTGWTFGQGTKVEIK
[1]
  neutralization IC50: 0.0063 µg/mL
  neutralization IC80: 0.0188 µg/mL
[2]
  neutralization IC50: 0.0044 µg/mL
  neutralization IC80: 0.0116 µg/mL
[3]
  neutralization IC50: 0.0261 µg/mL
  neutralization IC80: 0.0919 µg/mL
[4]
  BA.1 neutralization, fold improvement over A19-58.1: > 3 fold
[5]
  neutralization IC50: 0.0417 µg/mL
  neutralization IC80: 0.0956 µg/mL

B14: A23-58.1HC/58.1LC_F88Y-93VGLTG (antibody, V domains shown)
VH: not shown
VL: EIVLTQSPGTLSLSPGERATLSCRASQSVSSSYLAWYQQKPGQAPRLLIYSASSRATGIPDRFSGSGSGTDFTLTISRLEPEDFAVYYCQQYVGLTGWTFGQGTKVEIK
[1]
  neutralization IC50: 0.006 µg/mL
  neutralization IC80: 0.0162 µg/mL
[2]
  neutralization IC50: 0.0023 µg/mL
  neutralization IC80: 0.0088 µg/mL
[3]
  neutralization IC50: 0.0093 µg/mL
  neutralization IC80: 0.0426 µg/mL
[4]
  BA.1 neutralization, fold improvement over A19-58.1: > 10 fold
[5]
  neutralization IC50: 0.0099 µg/mL
  neutralization IC80: 0.0422 µg/mL

B15: A23-58.1HC_Y100cA/58.1LC_94GLTG (antibody, V domains shown)
VH: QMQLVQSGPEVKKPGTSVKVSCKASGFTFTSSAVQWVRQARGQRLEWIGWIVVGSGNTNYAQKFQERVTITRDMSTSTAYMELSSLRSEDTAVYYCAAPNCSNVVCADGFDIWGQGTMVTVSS
VL: EIVLTQSPGTLSLSPGERATLSCRASQSVSSSYLAWYQQKPGQAPRLLIYSASSRATGIPDRFSGSGSGTDFTLTISRLEPEDFAVYFCQQYGGLTGWTFGQGTKVEIK
[1]
  neutralization IC50: 0.0131 µg/mL
  neutralization IC80: 0.0165 µg/mL
[2]
  neutralization IC50: 0.0023 µg/mL
  neutralization IC80: 0.0063 µg/mL
[3]
  neutralization IC50: 0.0038 µg/mL
  neutralization IC80: 0.016 µg/mL
[4]
  BA.1 neutralization, fold improvement over A19-58.1: > 25 fold
[5]
  neutralization IC50: 0.0193 µg/mL
  neutralization IC80: 0.051 µg/mL
